Reference: US20100196398A1 (AstraZeneca / MedImmune, published 2010)
Positions count from the first letter of the chain named.

T1: human CD105 (human, UniProt P17813 26-658)
T1 construct: whole, on cells; Target as carried by HUVEC cells in the FACS assays; also called endoglin; END
T1 sequence (looked up): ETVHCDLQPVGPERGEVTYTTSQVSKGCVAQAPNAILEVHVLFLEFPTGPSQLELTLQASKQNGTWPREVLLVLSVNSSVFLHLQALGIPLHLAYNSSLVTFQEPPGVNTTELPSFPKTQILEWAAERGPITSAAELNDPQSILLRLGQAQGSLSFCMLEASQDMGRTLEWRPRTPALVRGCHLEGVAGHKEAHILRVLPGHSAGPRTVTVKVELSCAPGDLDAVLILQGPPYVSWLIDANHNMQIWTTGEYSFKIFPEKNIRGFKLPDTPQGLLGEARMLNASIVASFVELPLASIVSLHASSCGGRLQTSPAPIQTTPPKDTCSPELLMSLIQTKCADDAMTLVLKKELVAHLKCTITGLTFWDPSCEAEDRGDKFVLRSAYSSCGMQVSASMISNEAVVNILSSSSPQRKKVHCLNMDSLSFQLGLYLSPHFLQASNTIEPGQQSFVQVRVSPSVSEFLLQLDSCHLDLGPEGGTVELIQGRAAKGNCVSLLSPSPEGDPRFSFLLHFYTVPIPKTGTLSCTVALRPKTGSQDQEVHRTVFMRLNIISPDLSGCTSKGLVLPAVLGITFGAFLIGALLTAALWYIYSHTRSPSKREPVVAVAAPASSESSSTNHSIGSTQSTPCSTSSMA

B1: fully human monoclonal antibody 6A6 (antibody, V domains shown)
VH: EVQLLESGGGLVQPGGSLRLSCAASGFTFSSYAMSWVRQAPGKGLEWVSTISGGGHSTYYADSVKGRFTISRDNSKNTLYLQMNSLRAEDTAVYYCARIAPAGPHFDYWGQGTLVTVSS
VL: NFMLTQPHSVSESPGKTVTFSCTRSSGSIASNFVQWYQQRPGSSPTTVIYEHNQRPSGVPDRFSGSIDSSSSSASLTISGLKTEDEADYYCQFYDRNSHWVFGGGTKLTVL
notes: XenoMouse hybridoma antibody of Campaign 2 (IgG2 and IgG4 strains); also called 6A6.2
B2: fully human monoclonal antibody 11H2 (antibody, V domains shown)
VH: QVQLVESGGGVVQPGRSLRLSCAASGFSFSSYGMHWVRQAPGKGLDWVAIIWYDGSYKYYADSVKGRFTISRDNSKNTLSLQMNSLRAEDTAVYYCARDGKYPFDYWGQGTLVTVSS
VL: SYVLTQPPSVSVAPGQTARITCGGNNIGSKSVHWYQQKPGQAPVLVVYDDSDRPSGIPERFSGSNSGNTATLTISRVEAGDEADYYCQVWDRSSDHVVFGGGTKLTVL
notes: XenoMouse hybridoma antibody of Campaign 2 (IgG2 and IgG4 strains); also called 11H2.1
B3: fully human monoclonal antibody 9H10 (antibody, V domains shown)
VH: QVQLVESGGGVVQPGRSLRLSCAASGFAFINYGMHWVRQAPGKGLDWVAVISYDGSNKYYTDSVKGRFTISRDNSKNTLYLQMNSLRAEDTAVYYCARDLMGATLFDNWGQGTLVTVSS
VL: B2 VL with T21S, Y35F, R92S
notes: XenoMouse hybridoma antibody of Campaign 2 (IgG2 and IgG4 strains immunised with B300.19/human CD105 cells); also called 9H10.2
B4: fully human monoclonal antibody 4.37 (antibody, V domains shown)
VH: QVQLVESGGGVVQPGRSLRLSCAASGFTFSDYGMHWVRQAPGKGLEWVAVIWYDGSNKYYADSVKGRFTISRDNSKNTLYLQMNSLRAEDTAVYYCARAAGFYYYYGMDVWGQGTTVTVSS
VL: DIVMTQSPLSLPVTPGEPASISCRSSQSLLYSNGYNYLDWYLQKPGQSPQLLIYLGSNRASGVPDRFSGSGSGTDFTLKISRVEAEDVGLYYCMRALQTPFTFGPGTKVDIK
notes: XenoMouse hybridoma antibody of Campaign 1 (IgG1 and IgG4 strains immunised with soluble CD105); also called mAb 4.37; 4.37κ
B5: fully human monoclonal antibody 6B1 (antibody, V domains shown)
VH: QVQLVESGGGVVQPGRSLRLSCAASGFTFSSYGMHWVRQAPGKGLEWVAVIWYDGSNKYYADSVKGRFTISRDNSKNTLYLQMNSLRAEDTAVYYCVRDYSSGWYWGQGTLVTVSS
VL: SYELTQPPSVSVSPGQTARITCSGDALPKKYAYWYQQKSGQAPVLVIYEDSKRPSGIPERFSGSSSGTMATLTISGAQVEDEADYSCYSIDSSVNHVVFGGGTKLTVL
notes: XenoMouse hybridoma antibody of Campaign 2 (IgG2 and IgG4 strains); also called 6B1.1
B6: fully human monoclonal antibody 4.120 (antibody, V domains shown)
VH: QVQLQESGPGLVKPSETLSLTCTVSGGSISSYYWSWIRQPAGKGLEWIGRIYTSGSTNYNPSLKSRVTMSVDTSKNQFSLKLSSVTAADTAVYYCARRDIGATIKGFDYWGQGTLVTVSS
VL: not shown
notes: XenoMouse hybridoma antibody of Campaign 1 (IgG1 and IgG4 strains immunised with soluble CD105); also called mAb 4.120
B7: fully human monoclonal antibody 10C9 (antibody, V domains shown)
VH: QVQLVESGGGVVQPGRSLRLSCAASGFTFRSYGMHWVRQAPGKGLEWVAVIWYDGSNKYYADSVKGRFTISRDNSKNTLDLQMNSLRAEDTAVYYCARDRIAAARYYNGMDVWGQGTTVTVSS
VL: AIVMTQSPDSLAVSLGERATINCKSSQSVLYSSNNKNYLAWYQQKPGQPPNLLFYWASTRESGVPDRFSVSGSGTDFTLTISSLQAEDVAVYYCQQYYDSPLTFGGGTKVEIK
notes: XenoMouse hybridoma antibody of Campaign 2 (IgG2 and IgG4 strains); also called 10C9.2
B8: fully human monoclonal antibody 4D4 (antibody, V domains shown)
VH: QVQLVESGGGVVQPGRSLRLSCAASGFTFSSYGMHWVRQAPGKGLEWVAVIWYDGSNKYYADSVKGRFTISRDNSKNTLYLQMNSLRAEDTAVYYCARVLGATGGYYYYYGMDVWGQGTTVTVSS
VL: not shown
notes: XenoMouse hybridoma antibody of Campaign 2 (IgG2 and IgG4 strains); also called 4D4.1
B9: fully human monoclonal antibody 6B10 (antibody, V domains shown)
VH: QEQLVESGGGVVQPGRSLRLSCTASGFTFSNYGIHWVRQAPGKGLEWVTVISYDGSKKYYADSVKGRFTISRDNSKNTLYLQMNSLRAEDTAVYYCARAFSTMVRGVDHWGQGTLVTVSS
VL: DIQMTQSPSSLSASVGDRVTITCQASQDIYKSLNWYQQRPGKAPNLLIYDASNLETGVPSRFSGSGSGTDFTFTISSLQPEDFARYFCQQYDNLPLTFGGGTRVEIK
notes: XenoMouse hybridoma antibody of Campaign 2 (IgG2 and IgG4 strains); also called 6B10.1; mAb 6B10

The binders below were run against T1, human CD105 (assay: FACS KD determination on HUVEC cells, 4° C., nonlinear fit of geometric mean fluorescence).
Method: The affinity of the anti-CD105 antibodies was determined by FACS. […] Cells were kept on ice. Purified antibodies were serially diluted in filtered 1×PBS (2×) across 11 wells in 96-well plates. The twelfth well in each row contained buffer only. Cells and 1×PBS were added to each mAb well such that the final volume was 30 μL/well and each well contained approximately 100,000 cells. Plates were placed on a plate shaker for 3 hours at 4° C., then spun and washed 3 times with PBS. A fluorochrome-labeled secondary goat α-human polyclonal antibody was added to each well in a 200 μL volume. Plates were then incubated for 40 minutes at 4° C., then spun and washed 3 times with PBS.
The Geometric Mean Fluorescence (GMF) of 10,000 cells for each mAb concentration was determined using a FACSCalibur instrument. A nonlinear plot of GMF as a function of molecular mAb concentration was fit using Scientist software using the equation:
In the above equation, F=Geometric mean fluorescence, LT=total molecular mAb concentration, P′=proportionality constant that relates arbitrary fluorescence units to bound mAb, and KD=equilibrium dissociation constant. For each mAb an estimate for KD was obtained as P′ and KD were allowed to float freely in the nonlinear analysis.

| Kd [nM] | Binder |
| --- | --- |
| < 1.15 | B1 |
| 0.338 | B2 |
| < 0.584 | B3 |
| < 0.717 | B4 |
| 2.3 | B5 |
| 0.77 | B6 |
| < 0.748 | B7 |
| 0.622 | B8 |
| < 0.149 | B9 |

These binders were tested against T1, human CD105 (assay: FACS competition on HUVEC cells: unlabeled mAb at 50 ug/ml, wash, then FITC-labeled SN6 at 2 ug/ml; blocked antibody: SN6).

| Max % Bloc(king) of SN6 binding [%] | Binder |
| --- | --- |
| 95.4 | B1 |
| 29.4 | B2 |
| 81.9 | B3 |
| 57 | B4 |
| 20.5 | B5 |
| 29.4 | B6 |
| 9 | B7 |
| 5.1 | B8 |
| 96.9 | B9 |
